# Literature values as cited in US20100120660A1, “HIGHLY CONCENTRATED INSULIN SOLUTIONS AND COMPOSITIONS” (priority 2007, published 2010).
substance,measurement,setting,value
porcine insulin,stability of insulin in highly concentrated solution,acidic pH,not stable due to deamidation and polymerisation
same,concentration of stable insulin solutions,"comprising zinc, neutral pH",up to 6 mM
